Assay results as given in PMC3326313.

T1: GB1-His6-SRSF2 RRM wild type (Homo sapiens, UniProt Q01130 9-101)
T1 sequence: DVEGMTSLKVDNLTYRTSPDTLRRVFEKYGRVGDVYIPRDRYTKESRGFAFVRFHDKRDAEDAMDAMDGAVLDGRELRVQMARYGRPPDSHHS


Legend:
[1] = target: T1, GB1-His6-SRSF2 RRM wild type; assay: ITC
[2] = target: T1, GB1-His6-SRSF2 RRM wild type; assay: NMR chemical shift titration

Binder | Kd [1] | Kd [2]
AGCAGAGUA (ssRNA) [9-mer AGCAGAGUA] | 0.061 ± 0.001 µM | –
GAGUA (ssRNA) [5-mer GAGUA] | – | ~500 µM
